Laboratory results reported in the DeepSol protein solubility set.

experiment: soluble on expression in E. coli; label from the status in PepcDB or PDB records

Row | Sequence | soluble on expression in E. coli
1 | SAASGEEDMSELSPAAAPNLDWYEKPEETHAPEVDLETVIPPAQEPSNPAEPFCPRDLVPVVFPGPVSQEDCCQFTCELLKHILYQRHQLPLPYEQLKHFYRKAPQAEDTARKKAWLATEARNRKCQQALAELESVLSHLRDFFARTLVPQVLILLGGNALSPKEFYELDLSRLAPFGVDQGLNTAACLRRLFRAIFLADPFSELQTPPLMGTIVMVQGHRDCGEDWFQPKLNYRVPSRGHKLTVTLSCGRPSVPAMASEDYIWFQAPVTLKGFHE | soluble
2 | MEVKLPELGDNVTQATVVGVLVKEGDRVEPGQPLLELETDKAVVEVPAEAGGVVKRVLVKVGDEVRPGQPFLELAEAEGGAEAPPLKAEERPEAPAPKAEEAPRPAPKEAPPAPQEAPSERRLIPAAPSIRRLARELGVDLTRLRGTGLAGRITEEDVRRAAGLGEAAPAALPAAPAPRLPDFTKWGPVRREPMSGVRKATVRSMSQAWAQVPMVTHFDEADVTELEALRKQYAKKAEEKGFRLTLTAFLLKALALTLKAFPKFNASLDVEAQEIVYKDYIHIGVAVDTPHGLLVPVIRDVDRKGVLRLAEELQEISQRARERKLSPEEMQGATFSLSNLGGIGGTGFTPIVNWPEVAILGVSRSQMKPLWDPGKEAFVPRLVMPFSLTYDHRLIDGADAARFCRHLAGILEDPLGLALA | soluble
3 | MNQSDVLSNSMKQATINNEAHVIIDDIDTAHKELDILQQEVDKVIFGQNHVIEYALTSILAGGHALLVGVPGLAKTRLVETLGIVLGLDEKRIQFTPDLMPSDIIGSEIMDSDKSGKRSFRYLQGPIFTQLLMADEINRASPRTQSALLQAMQEYHVTVAGTRYDLPQPFHVLATQNPLEQEGTYPLPEAQLDRFLMQIDIDYPDLTTERRIILDTTGGKNQNAKPVLSAKTLQKIQKIVRKMPISENVVEAILKLVRSARPHKENSLANTYVAWGPGPRASQALSLCARARALYHGRLSPSLDDIATLACPVLQHRMALNFSARAENITIKDIIDNLVKDAL | not soluble
4 | MTLDECIRLAWKQNPSVRNSVIDIKEARADYMAAVGAFLPRAAVNAETGKRFGRSIDPDTNGYTNETFEEGTVGLDMTLSLFEGFSRIHQVRFRKMNKERSEWALKNRQNELAYQVTDAYYKLILERKLLNLALEQSRLSERYLKQTEAFVELGLKSASDLQEVKARREGDIYRYKSRENTCRLALLHLEQLMNFQPGDTLVIQDTIVEANQLPLLSVPSTETLYAQSLEILPVMRMIDLKRKAARKEYAMAGGTFSPSVYARFTVGSNFYNTVFSARQLRDNIGKYVGIGISFPLLSGLERLTHQRKQKLNLYRLKNEEELEKQQLYTDIEQTLLSLHAGFSEHQQALQQLEAEALVLKESERKWEEGLISVFQLMEARNRFISAKAELVRVRLQVEMMRKLEKYYREGTFL | not soluble
5 | MGGYGGVKMEGMLKGEGPGPLPPLLQQYVELRDRYPDYLLLFQVGDFYECFGEDAERLARALGLVLTHKTSKDFTTPMAGIPIRAFDAYAERLLKMGFRLAVADQVEPAEEAEGLVRREVTQLLTPGTLTQEALLPREANYLAAIATGDGWGLAFLDVSTGEFKGTLLKSKSALYDELFRHRPAEVLLAPELRENEAFVAEFRKRFPVMLSEAPFEPQGEGPLALRRAQGALLAYARATQGGALSVRPFRLYDPGAFVRLPEASLKALEVFEPLRGQDTLFGVLDETRTAPGRRLLQAWLRHPLLERGPLEARLDRVERFVREGALREGVRRLLFRLADLERLATRLELSRASPRDLAALRRSLEILPELKGLLGEEVGLPDLSGLLEELRAALVEDPPLKVSEGGLIREGYDPDLDALRRAHAEGVAYFLDLEAREKERTGIPTLKVGYNAVFGYYLEVTRPYYEKVPQEYRPVQTLKDRQRYTLPEMKERERELYRLEALIKRREEEVFLALRERARKEAEALREAARILAELDVYAALAEVAVRHGYTRPRFGERLRIRAGRHPVVERRTAFVPNDLEMAHELVLVTGPNMAGKSTFLRQTALIALLAQIGSFVPAEEAELPLFDGIYTRIGASDDLAGGKSTFMVEMEEVALVLKEATERSLVLLDEVGRGTSSLDGVAIATALAEALHERRCYTLFATHYFELTALALPRLKNLHVAAKEEEGGLVFYHQVLPGPASKSYGVEVAEMAGLPKEVVERARALLSAMAARREGALEEVLERLLALDPDRLTPLEALRFLHELKALALGLPLGSMKG | soluble
6 | MAHHHHHHMICEVLQCNRYPPCCGQYPNGEVNVVLPRSVRGDDLFVLQSLVRCDRVGLSHSGTLMELALMIHAARASSAARITAVIPYISFTESVSSMAAVAEILESMGCQHVITVDMPIDQVEGMFSVPLELISARYEFVQYIANQLTAEGHDFRNITVVAPNGAGVHRAKNFADALMQYKKLSPDEQFVPLCTAVRRQVYRGLQDTVLNINHCGANVGSTRAFEQALLQQEQGICAIQDDGDTTITSEGIDLVGDVQGKLCIVVDTSVDEATEICQTACKLREEGASRIILIATHFIISGRAVERLIESPIDLIVVTDSVEHDEVFKNPHIARRLRVLPIAPLLARAIEKLHTENSLTTLFEK | not soluble
7 | MTVEPFRNEPIETFQTEEARRAMREALRRVREEFGRHYPLYIGGEWVDTKERMVSLNPSAPSEVVGTTAKAGKAEAEAALEAAWKAFKTWKDWPQEDRSRLLLKAAALMRRRKRELEATLVYEVGKNWVEASADVAEAIDFIEYYARAALRYRYPAVEVVPYPGEDNESFYVPLGAGVVIAPWNFPVAIFTGMIVGPVAVGNTVIAKPAEDAVVVGAKVFEIFHEAGFPPGVVNFLPGVGEEVGAYLVEHPRIRFINFTGSLEVGLKIYEAAGRLAPGQTWFKRAYVETGGKDAIIVDETADFDLAAEGVVVSAYGFQGQKCSAASRLILTQGAYEPVLERVLKRAERLSVGPAEENPDLGPVVSAEQERKVLSYIEIGKNEGQLVLGGKRLEGEGYFIAPTVFTEVPPKARIAQEEIFGPVLSVIRVKDFAEALEVANDTPYGLTGGVYSRKREHLEWARREFHVGNLYFNRKITGALVGVQPFGGFKLSGTNAKTGALDYLRLFLEMKAVAERF | soluble
8 | MARPIFSQEIDPYSQEVPKDVAISPSSKFDIYVEAPGEAPFEEADSPAMEYDRELAHHYSHKQLDFLEACSEKPSSKCGNEVFKNMLDETVPITDECCRDILKIGKDCHLGLVKLIFATYEYKNKASKGIPKSKQTWNECVFRVGSKIGAPVSFEQ | soluble
9 | MQIFLLGLDNTTHTLDVDASTTLSAIKGVIGAGEEFSISYGSKVLSEELTLGECQIESLSTLSVNGRLLGGKVHGSLARAGKVRAQTPKVDKQDKKKKKRGRAFRRVQYTRRYVNVASGPGKKRGPNSNS | not soluble
10 | MNDEQQNSNQSENTKKPFFQSLFGRFFQGELKNREELVEVIRDSEQNDLIDQNTREMIEGVMEIAELRVRDIMIPRSQIIFIEDQQDLNTCLNTIIESAHSRFPVIADADDRDNIVGILHAKDLLKFLREDAEVFDLSSLLRPVVIVPESKRVDRMLKDFRSERFHMAIVVDEFGAVSGLVTIEDILEQIVGDIEDEFDEEEIADIRQLSRHTYAVRALTDIDDFNAQFNTDFDDEEVDTIGGLIMQTFGYLPKRGEEIILKNLQFKVTSADSRRLIQLRVTVPDEHLAEMNNVDEKSELEHHHHHH | not soluble
11 | DDAYVERRVPQEMLGGHSQGDELPIHFSRSDAFERLPQPEPIRRRLVRVGSSPVHEERMVHQQIGDLCVGDTVAHARFGIGIIESLEGEGDNAKAEVSFQQVGRKRLLLRFAKLSKVEKDSI | not soluble
12 | KLSNGMNGSEAAVHEVPEYTGPLGTSGEEPAPTVEKPEYTGPLGTSGEEPAPTVEKPEYTGPLGTAGEEAAPTVEKPEFTGGVNGTEPAVHEIAEYKGSDSLVTLTTKEDYTYKAPLAQQALPETGNKESDLLASLGLTAFFLGLFTLGKKREQ | not soluble
13 | MSLSYVHTEIQNDALYITLDYPEKKNGLDAELGTSLLEAIRAGNNETSIHSIILQSKHRAYFSSGPRLEDLLICASDQSDVRLREVLHVLNHCVLEIFTSPKVTVALINGYAYGGGFNMMLACDRRIALRRAKFLENFHKMGISPDLGASYFLPRIIGYEQTMNLLLEGKLFTSEEALRLGLIQEICENKQELQERVKNYLKAVSEGYVPAIAATKKLLKGKAAEELKQQLEQETEELVALFKQTEIKKRLEALVEGHHHHHH | soluble
14 | MPPITQQATVTAWLPQVDASQITGTISSLESFTNRFYTTTSGAQASDWIASEWQALSASLPNASVKQVSHSGYNQKSVVMTITGSEAPDEWIVIGGHLDSTIGSHTNEQSVAPGADDDASGIAAVTEVIRVLSENNFQPKRSIAFMAYAAEEVGLRGSQDLANQYKSEGKNVVSALQLDMTNYKGSAQDVVFITDYTDSNFTQYLTQLMDEYLPSLTYGFDTCGYACSDHASWHNAGYPAAMPFESKFNDYNPRIHTTQDTLANSDPTGSHAKKFTQLGLAYAIEMGSATGDTPTPGNQ | soluble
15 | MRYLIATAVLVAVVLVGWPAAGAPPSCAGLGGTVQAGQICHVHASGPKYMLDMTFPVDYPDQQALTDYITQNRDGFVNVAQGSPLRDQPYQMDATSEQHSSGQPPQATRSVVLKFFQDLGGAHPSTWYKAFNYNLATSQPITFDTLFVPGTTPLDSIYPIVQRELARQTGFGAAILPSTGLDPAHYQNFAITDDSLIFYFAQGELLPSFVGACQAQVPRSAIPPLAI | soluble
16 | EELEYKGMNTLQISNVDDLISFYQYADDRIPLISGHRGGRGKGYPENSMETFENTLSYTPATFEIDPRLTKDSVIVLFHDDTLERTSNGTGKVSDYTWEELQNFRLKDPEGNITNYRIPTLEEAIRWARGKTILILDKKDVPMERTAQLITDMQAEPYVMITVHDGASARFFYEKNPNFMFEAFVKTKEAVQDYEDNGIPWSHIMAYVGPKITPEVREVIDMLHERGVMCMISTAPSDDKLSTPESRAEAYRMIIRQGVDIIESDRPIEVAEAISSLIPVSSSKGKFFSTL | soluble
17 | SLSESFPLLEKYRIGKVIGDGNFAVVKECVDRYTGKEFALKIIDKAKCCGKEHLIENEVSILRRVKHPNIIMLVEEMETATDLFLVMELVKGGDLFDAITSSTKYTERDGSAMVYNLANALRYLHSLSIVHRDIKPENLLVCEYPDGTKSLKLGDFGLATVVEGPLYTVCGTPTYVAPEIIAETGYGLKVDVWAAGVITYILLCGFPPFRSENNLQEDLFDQILAGKLEFPAPYWDNITDSAKELISQMLQVNVEARCTAGEILSHPWVSDDASQENNMQAEVTGKLKQHFNNALPKQNSTTTGVSVIMNTALDK | soluble
18 | MDSENKTSIAIGCKVCNKYKVTKLLGGGSYGCVHEVIELKTGDRYAMKSEYSSMKKPILLNELKVMKAIYTFSSQHVLKVRDMGVHGSTKFIIMQMLEKNMDEVFELLGGSMTLNTAVATSYQCLEGLEFMHWAGFLHRDIKPNNYCLDANSGQGLRTIYIIDYGICKRFVDNNNVIRQPRKITKFRGTLDFAPIVSHELREHSRGSDLES | not soluble
19 | MSLATMQDVATLAGVAPMTVSNCYRVPDKVHPQTLARVLEAAAKLGYTRNRIAGNLASGRSQVVGVLVPSLENSNFIGMIQGLEDRLHQLDHQLMLAVTPTADRELDSIRTFIERRIDGVVLTDVQHSRDTVDLLRNARLPTVETWSLKGPFIDMGVGFSLYDAAFDMTNLMIEAGYRRIGFAGFTPASTERFLERQRGFEDALRRANLRHDVHAYTEQSEGFAGGRITLNALLREEPELDGVFCGTDILAAGMIFECMRRGWRVPGRIGIAGYGNYQIASEITPKLTTVATPGYEMGVAAAEMLVGRLVGAAPAPVIRDVGYRLISGASEGHHHHHH | not soluble
20 | MGSDKIHHHHHHMTDITVAETSAPDTIKAFEERLMQVSDTLPKRLKQCADYVGANKDRIAVSTVAEMAEGAGVQPSAFMRFCQIFGFSGFSEMQKLFRDSLVGGWPDYSTRLHHLRETASGSPSALLAEFVEAGRVSLEGLLQTVDPQLLEQAVACLSTAGMIHIVGLRRSFPVASYIAYAFEKMAVPAMLHSGVGKLESQHAIRDGDVVLAITFAPYSTETLDLVEQVSARGISVVAITDTVVNPLRKLGTITLSVAEVDFGAFRSLSATLCLAIALSVAVGTARQQD | not soluble
